B1: Interleukin-1 receptor-associated kinase 4 (Homo sapiens), Q9NWZ3 (parent)
chain: MNKPITPSTYVRCLNVGLIRKLSDFIDPQEGWKKLAVAIKKPSGDDRYNQFHIRRFEALLQTGKSPTSELLFDWGTTNCTVGDLVDLLIQNEFFAPASLLLPDAVPKTANTLPSKEAITVQQKQMPFCDKDRTLMTPVQNLEQSYMPPDSSSPENKSLEVSDTRFHSFSFYELKNVTNNFDERPISVGGNKMGEGGFGVVYKGYVNNTTVAVKKLAAMVDITTEELKQQFDQEIKVMAKCQHENLVELLGFSSDGDDLCLVYVYMPNGSLLDRLSCLDGTPPLSWHMRCKIAQGAANGINFLHENHHIHRDIKSANILLDEAFTAKISDFGLARASEKFAQTVMTSRIVGTTAYMAPEALRGEITPKSDIYSFGVVLLEIITGLPAVDEHREPQLLLDIKEEIEDEEKTIEDYIDKKMNDADSTSVEAMYSVASQCLHEKKNKRPDIKKVQQLLQEMTAS
partner: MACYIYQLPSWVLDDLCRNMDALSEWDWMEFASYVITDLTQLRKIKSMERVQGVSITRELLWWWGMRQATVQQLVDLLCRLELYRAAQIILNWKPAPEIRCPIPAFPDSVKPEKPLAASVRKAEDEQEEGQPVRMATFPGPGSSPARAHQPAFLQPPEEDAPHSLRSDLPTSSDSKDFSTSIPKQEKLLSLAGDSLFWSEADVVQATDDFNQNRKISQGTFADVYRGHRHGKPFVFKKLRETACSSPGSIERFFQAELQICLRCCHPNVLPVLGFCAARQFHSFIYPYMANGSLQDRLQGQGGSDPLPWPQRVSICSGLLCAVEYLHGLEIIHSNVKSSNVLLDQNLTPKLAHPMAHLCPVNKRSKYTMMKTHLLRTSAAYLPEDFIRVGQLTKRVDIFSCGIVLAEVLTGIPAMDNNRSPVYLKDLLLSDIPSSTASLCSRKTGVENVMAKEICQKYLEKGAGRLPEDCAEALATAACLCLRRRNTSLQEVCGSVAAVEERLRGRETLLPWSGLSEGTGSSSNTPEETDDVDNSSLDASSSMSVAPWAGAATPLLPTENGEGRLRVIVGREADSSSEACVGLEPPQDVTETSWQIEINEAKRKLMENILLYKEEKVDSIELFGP
B2: Interleukin-1 receptor-associated kinase 4 (Homo sapiens), Q9NWZ3 (parent)
chain: B1 chain

Variants of: B1
Conditions: with irak2_human IRAK2, O43187

Effect of a mutation on the interaction, disrupting interaction:
MNKPITPSTYVRCLNVGLIRKLSDDIDPQEGWKKLAVAIKKPSGDDRYNQFHIRRFEALLQTGKSPTSELLFDWGTTNCTVGDLVDLLIQNEFFAPASLLLPDAVPKTANTLPSKEAITVQQKQMPFCDKDRTLMTPVQNLEQSYMPPDSSSPENKSLEVSDTRFHSFSFYELKNVTNNFDERPISVGGNKMGEGGFGVVYKGYVNNTTVAVKKLAAMVDITTEELKQQFDQEIKVMAKCQHENLVELLGFSSDGDDLCLVYVYMPNGSLLDRLSCLDGTPPLSWHMRCKIAQGAANGINFLHENHHIHRDIKSANILLDEAFTAKISDFGLARASEKFAQTVMTSRIVGTTAYMAPEALRGEITPKSDIYSFGVVLLEIITGLPAVDEHREPQLLLDIKEEIEDEEKTIEDYIDKKMNDADSTSVEAMYSVASQCLHEKKNKRPDIKKVQQLLQEMTAS [F25D]
MNKPITPSTYVRCLNVGLIRKLSDFIDPQEGWKKLAVAIKKPSGDDRYNKFHIRRFEALLQTGKSPTSELLFDWGTTNCTVGDLVDLLIQNEFFAPASLLLPDAVPKTANTLPSKEAITVQQKQMPFCDKDRTLMTPVQNLEQSYMPPDSSSPENKSLEVSDTRFHSFSFYELKNVTNNFDERPISVGGNKMGEGGFGVVYKGYVNNTTVAVKKLAAMVDITTEELKQQFDQEIKVMAKCQHENLVELLGFSSDGDDLCLVYVYMPNGSLLDRLSCLDGTPPLSWHMRCKIAQGAANGINFLHENHHIHRDIKSANILLDEAFTAKISDFGLARASEKFAQTVMTSRIVGTTAYMAPEALRGEITPKSDIYSFGVVLLEIITGLPAVDEHREPQLLLDIKEEIEDEEKTIEDYIDKKMNDADSTSVEAMYSVASQCLHEKKNKRPDIKKVQQLLQEMTAS [Q50K]
MNKPITPSTYVRCLNVGLIRKLSDFIDPQEGWKKLAVAIKKPSGDDRYNQDHIRRFEALLQTGKSPTSELLFDWGTTNCTVGDLVDLLIQNEFFAPASLLLPDAVPKTANTLPSKEAITVQQKQMPFCDKDRTLMTPVQNLEQSYMPPDSSSPENKSLEVSDTRFHSFSFYELKNVTNNFDERPISVGGNKMGEGGFGVVYKGYVNNTTVAVKKLAAMVDITTEELKQQFDQEIKVMAKCQHENLVELLGFSSDGDDLCLVYVYMPNGSLLDRLSCLDGTPPLSWHMRCKIAQGAANGINFLHENHHIHRDIKSANILLDEAFTAKISDFGLARASEKFAQTVMTSRIVGTTAYMAPEALRGEITPKSDIYSFGVVLLEIITGLPAVDEHREPQLLLDIKEEIEDEEKTIEDYIDKKMNDADSTSVEAMYSVASQCLHEKKNKRPDIKKVQQLLQEMTAS [F51D]
MNKPITPSTYVRCLNVGLIRKLSDFIDPQEGWKKLAVAIKKPSGDDRYNQFHIDRFEALLQTGKSPTSELLFDWGTTNCTVGDLVDLLIQNEFFAPASLLLPDAVPKTANTLPSKEAITVQQKQMPFCDKDRTLMTPVQNLEQSYMPPDSSSPENKSLEVSDTRFHSFSFYELKNVTNNFDERPISVGGNKMGEGGFGVVYKGYVNNTTVAVKKLAAMVDITTEELKQQFDQEIKVMAKCQHENLVELLGFSSDGDDLCLVYVYMPNGSLLDRLSCLDGTPPLSWHMRCKIAQGAANGINFLHENHHIHRDIKSANILLDEAFTAKISDFGLARASEKFAQTVMTSRIVGTTAYMAPEALRGEITPKSDIYSFGVVLLEIITGLPAVDEHREPQLLLDIKEEIEDEEKTIEDYIDKKMNDADSTSVEAMYSVASQCLHEKKNKRPDIKKVQQLLQEMTAS [R54D]
MNKPITPSTYVRCLNVGLIRKLSDFIDPQEGWKKLAVAIKKPSGDDRYNQFHIRRFEALLQTGKSPTSELLFDWGTTNCTVGDLVDLLIQNEFFKPASLLLPDAVPKTANTLPSKEAITVQQKQMPFCDKDRTLMTPVQNLEQSYMPPDSSSPENKSLEVSDTRFHSFSFYELKNVTNNFDERPISVGGNKMGEGGFGVVYKGYVNNTTVAVKKLAAMVDITTEELKQQFDQEIKVMAKCQHENLVELLGFSSDGDDLCLVYVYMPNGSLLDRLSCLDGTPPLSWHMRCKIAQGAANGINFLHENHHIHRDIKSANILLDEAFTAKISDFGLARASEKFAQTVMTSRIVGTTAYMAPEALRGEITPKSDIYSFGVVLLEIITGLPAVDEHREPQLLLDIKEEIEDEEKTIEDYIDKKMNDADSTSVEAMYSVASQCLHEKKNKRPDIKKVQQLLQEMTAS [A95K]

Variants of: B2
Conditions: with MYD88, Q99836-1
MYD88, Q99836-1, sequence (Q99836 whole entry): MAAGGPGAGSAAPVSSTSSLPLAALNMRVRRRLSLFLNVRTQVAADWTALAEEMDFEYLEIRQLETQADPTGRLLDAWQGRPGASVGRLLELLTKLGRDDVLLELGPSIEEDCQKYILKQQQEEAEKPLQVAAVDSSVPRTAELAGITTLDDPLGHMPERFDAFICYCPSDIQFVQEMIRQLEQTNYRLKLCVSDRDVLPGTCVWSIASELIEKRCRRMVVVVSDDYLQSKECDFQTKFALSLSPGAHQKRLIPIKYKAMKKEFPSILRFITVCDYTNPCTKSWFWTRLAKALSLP

Effect of a mutation on the interaction, disrupting interaction:
MNKPITPSTYVACLNVGLIRKLSDFIDPQEGWKKLAVAIKKPSGDDRYNQFHIRRFEALLQTGKSPTSELLFDWGTTNCTVGDLVDLLIQNEFFAPASLLLPDAVPKTANTLPSKEAITVQQKQMPFCDKDRTLMTPVQNLEQSYMPPDSSSPENKSLEVSDTRFHSFSFYELKNVTNNFDERPISVGGNKMGEGGFGVVYKGYVNNTTVAVKKLAAMVDITTEELKQQFDQEIKVMAKCQHENLVELLGFSSDGDDLCLVYVYMPNGSLLDRLSCLDGTPPLSWHMRCKIAQGAANGINFLHENHHIHRDIKSANILLDEAFTAKISDFGLARASEKFAQTVMTSRIVGTTAYMAPEALRGEITPKSDIYSFGVVLLEIITGLPAVDEHREPQLLLDIKEEIEDEEKTIEDYIDKKMNDADSTSVEAMYSVASQCLHEKKNKRPDIKKVQQLLQEMTAS [R12A]
MNKPITPSTYVRCLNEGLIEKLSDFIDPQEGWKKLAVAIKKPSGDDRYNQFHIRRFEALLQTGKSPTSELLFDWGTTNCTVGDLVDLLIQNEFFAPASLLLPDAVPKTANTLPSKEAITVQQKQMPFCDKDRTLMTPVQNLEQSYMPPDSSSPENKSLEVSDTRFHSFSFYELKNVTNNFDERPISVGGNKMGEGGFGVVYKGYVNNTTVAVKKLAAMVDITTEELKQQFDQEIKVMAKCQHENLVELLGFSSDGDDLCLVYVYMPNGSLLDRLSCLDGTPPLSWHMRCKIAQGAANGINFLHENHHIHRDIKSANILLDEAFTAKISDFGLARASEKFAQTVMTSRIVGTTAYMAPEALRGEITPKSDIYSFGVVLLEIITGLPAVDEHREPQLLLDIKEEIEDEEKTIEDYIDKKMNDADSTSVEAMYSVASQCLHEKKNKRPDIKKVQQLLQEMTAS [V16E;R20E]

Source: IntAct's records for PubMed 20485341
